Reference: US20250326797A1, “PROTEIN-PROTEIN INTERACTION MODULATORS AND METHODS FOR DESIGN THEREOF” (RAMOT AT TEL AVIV UNIVERSITY LTD., priority 2022, published 2025)

How the values were obtained:
[1] = molecular target: T1, CaN PxIxIT binding site (CaNA, catalytic subunit of calcineurin) (Homo sapiens, UniProt Q08209, L343A/M347D/Y341S); assay: Fluorescence Polarization (FP) competition assay with FITC-labeled PVIVIT peptide; details: for ability to compete with PVIVIT for CaN binding: result in words; for IC50: competition with 100 nM FITC-labeled PVIVIT peptide, 4 uM CaNA, single site inhibition model, read-out: IC50: half maximal inhibitory concentration
T1 construct: GST; made in house; host or cells: E. coli BL21
T1 sequence (Q08209 2-347 Y341S/L343A/M347D): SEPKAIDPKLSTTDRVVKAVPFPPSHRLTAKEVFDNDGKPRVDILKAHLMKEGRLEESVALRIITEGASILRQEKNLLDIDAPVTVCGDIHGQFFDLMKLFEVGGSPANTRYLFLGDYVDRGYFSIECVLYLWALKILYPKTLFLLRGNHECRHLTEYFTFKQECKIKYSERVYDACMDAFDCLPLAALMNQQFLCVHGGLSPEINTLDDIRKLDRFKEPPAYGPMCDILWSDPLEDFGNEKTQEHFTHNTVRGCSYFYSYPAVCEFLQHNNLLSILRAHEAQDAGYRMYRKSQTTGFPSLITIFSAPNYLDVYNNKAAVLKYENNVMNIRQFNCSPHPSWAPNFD
Procedure: (§1) Fluorescence Polarization (FP) competition assay. Fluorescence measurements were performed on samples arrayed in a 96-well plate using Biotek HybridHI reader equipped with a polarized optic system. All measurements were done in triplicate. […] Experimental polarization data from simple and competitive binding experiments were fitted using GraphPad Prism7, with error bars representing standard deviation.
Selected peptides were synthesized and their ability to specifically bind the CaN PxIxIT binding site was evaluated by FP competition assay.
(§2) Polarization levels were read and normalized values were fitted to a single site model.
The above peptides are synthesized and their ability to specifically bind the CaN PxIxIT binding site is evaluated by FP competition assay. […] After fitting the polarization values to a single site inhibition model, the corresponding IC50 values are extracted.

[2] = molecular target: T2, Catalytic subunit of calcineurin (CaNA), residues 2-347 with substitutions Y341S, L343A and M347D (UniProt Q08209 2-347); assay: FP competition assay against FITC-PVIVIT on CaNA
T2 construct: range 2-347; Expressed as a cleavable GST fusion and purified on a GST column and by size exclusion; The microarray used GST-tagged CaN; also called Cn
T2 sequence (Q08209 2-347 Y341S/L343A/M347D): as above
Procedure: as §1
(§3) Selected peptides were synthesized and their ability to specifically bind the CaN PxIxIT binding site was evaluated by FP competition assay. […] After fitting the polarization values to a single site inhibition model, the corresponding IC₅₀ values were extracted and reported in Table 2.

[3] = molecular target: T2, Catalytic subunit of calcineurin …; assay: fluorescence polarization competition; unlabeled peptide titrated against 100 nM FITC-labeled PVIVIT bound to 4 uM CaNA
Procedure: as §1, §3, §2

[4] = molecular target: T2, Catalytic subunit of calcineurin …; assay: FP competition assay against FITC-PVIVIT (100 nM) on CaNA (4 uM); single site inhibition fit
Procedure: as §1, §3

In the case of Ac-AAGAGVGIVITVTEAE-NH2 [rbmAKAP79], the “ability to compete with PVIVIT for CaN binding” value [1] is reported as “successfully competed with PVIVIT binding”.

For Ac-ADGAGVGIVITVTEAE-NH2 [rbmAKAP79_2], the “ability to compete with PVIVIT for CaN binding” value [1] was “successfully competed with PVIVIT binding”.

Ac-ADEAIPEIVISKPEEP-NH2 [rbmTRESK] was tested, and the IC50 [1] was 14 µM and the “IC50 relative to closest natural counterpart (human TRESK fragment)” value ([1]; rbmTRESK vs natural TRESK fragment) was “almost four times lower”.

“Ac-ADEAVPQIIISAEELP-NH2 [TRESK, reference compound]” gave an IC50 [1] of 54 µM.

In the case of Ac-ADEAIPEIVISKPEEP-NH2 (designed binder) [rbmTRESK], the “fold lower IC50 than the CaN-binding fragment of human TRESK protein (SEQ ID NO: 3)” value [2] is reported as roughly 4 fold and the “IC50 (read off the curve)” value [3] is reported as roughly 10 µM.

Ac-ASVSNPEITVTSAETE-NH2 (designed binder) [rbmRIPOR2] was tested, and the IC50 [4] was 79 µM.

Molecule Ac-HVSSSPRITITPTQHR-NH2 (designed binder) [rbmRIPOR2_2] has an IC50 [4] of 200 µM.

Molecule Ac-AAGAGVGIVITVTEAE-NH2 (designed binder) [rbmAKAP79] has an IC50 [4] of 57 µM.

For Ac-ADGAGVGIVITVTEAE-NH2 (designed binder) [rbmAKAP79_2], the IC50 [4] was 69 µM.

With Ac-ADEAIPEITITSAELP-NH2 (designed binder) [rbmTRESK_2] the IC50 [4] was 60 µM.
